The numbers were not newly measured in publication PMC3417102, which cites them from elsewhere.

Data set [1] addresses plasminogen (Homo sapiens) (UniProt P00747).
Data set [2] addresses tissue-type plasminogen activator (Homo sapiens) (UniProt P00750).
Data set [3] deals with Glu-plasminogen (Homo sapiens) (UniProt P00747).

UniProt P00750, sequence (P00750 311-562): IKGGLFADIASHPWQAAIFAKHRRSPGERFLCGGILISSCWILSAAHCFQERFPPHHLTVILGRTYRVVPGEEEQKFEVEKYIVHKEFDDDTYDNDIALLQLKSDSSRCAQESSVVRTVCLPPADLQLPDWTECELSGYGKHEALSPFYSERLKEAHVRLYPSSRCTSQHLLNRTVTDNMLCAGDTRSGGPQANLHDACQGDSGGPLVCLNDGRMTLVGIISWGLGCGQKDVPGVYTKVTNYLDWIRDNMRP

As to Annexin A2 (from UniProt P07355), the Kd is 114 nM in data set [1] and 30 nM in data set [2]. Regarding “beta2-glycoprotein I (nicked) (from UniProt P02749)”, the Kd in data set [3] is 370 nM.
